The values that follow come from the supplement of paper PMC9170038.

The test system of this data set is MS2 coat protein. Description: apparent KD of MS2 coat protein; designed switch direction (-1 OFF switch, 1 ON switch): 1; higher = weaker reporter binding. The gist of the method: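 On Illumina chips, designed RNA switches with common flanks were made by stalled E. coli RNA polymerase. Titrations with SNAP-549-labelled MS2 coat protein, doubling from 0.7 or 1.5 nM to 3 µM, were done with no input, with 200 uM small-molecule ligand, or with an oligonucleotide input. Apparent KD is the median per design over clusters, from curve fits of normalised cluster fluorescence.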

[1] abbreviates: Eterna round: R95, input ligand: FMN 200 uM.
Setting [2] is: Eterna round: R95, input ligand: microRNA oligo, concentration not stated.
[3] abbreviates: Eterna round: R95, input ligand: none.
The mark [4] stands for this setting: input ligand: microRNA oligo, concentration not stated.

Consider “CGGCGCUGUCGAGAGGAUAUGCGGUGAUGGACAUGAGGAUCACCCAUGUUAGCGAUAGCAUUACGGUAGAAGGCUCCACAGCUGU [Soteed Omei mod 12] (puzzle: Same State 2)”, for which the “apparent KD of MS2 coat protein” value came to 42.5 nM under setting [1], 187 nM under setting [2] and 420 nM under setting [3].
Consider “CGGCGUUGUCGAGAGGAUAUGCGGUGAUGGACAUGAGGAUCACCCAUGUUAGCGAUAGCAUUACGGUAGAAGGCUCUACAGCUGC [Soteed Omei mod 7] (puzzle: Same State 2)”, for which the “apparent KD of MS2 coat protein” value under setting [2] was 42.5 nM.
Consider “CGGGAAAUCGUAGGAUAUCUAGGAUAUGAACGAGGAUCACCCGAGCAGCAUCAGCGCAUCAGAGGAGAGAAGGACGAUGAUGCG [pwkr ssNG2 2F5 2FMN.17] (Eterna round: R96, puzzle: Same State NG 2)”, for which the “apparent KD of MS2 coat protein” value (input ligand: FMN 200 uM) was 327 nM, the “apparent KD of MS2 coat protein” value under setting [4] is 273 nM and the “apparent KD of MS2 coat protein” value (input ligand: none) amounted to 65.7 nM.
For “CGGGUACAUGAGGAUCACCCAUGUGGGAGAGAUGCAGGAUAUGUGGGAAAAGGGAAUGUAACAGAAGGGCAAGGAG [JR_SS!_Sub015] (puzzle: Same State 1)”, the “apparent KD of MS2 coat protein” value was 220 nM under setting [1], 128 nM under setting [2] and 124 nM under setting [3].
Turning to “CGGGUACAUGAGGAUCACCCAUGUGGGAGGGAUGCAGGAUAUGUGGGAAAAGGGUAUGAAACAGAAGGGCAAGGAG [JR_SS!_Sub013] (puzzle: Same State 1)”, the “apparent KD of MS2 coat protein” value was determined as 29.6 nM under setting [1], 33.2 nM under setting [2] and 35.1 nM under setting [3].
The like results for “CGGGUACAUGAGGAUCACCCAUGUUGGAGUAAUGCAGGAUAUGUGAGACGAGAUGAUAAAACAGAAGGGCAAGGAG [JR_SS!_Sub010] (puzzle: Same State 1)” were, in that order, 50.2 nM, 70.5 nM and 123 nM.
As for “CGGGUCGUGCUAGGAUAUCUAGGAUAUGGACGAGGAUUACCCGAGCAGCAUUAGCGCACCAGAGGAGAGAAGGAGCGUGAUGCG [pwkr ssNG2 2F5 2FMN.15] (Eterna round: R96, puzzle: Same State NG 2)”, the “apparent KD of MS2 coat protein” value was 287 nM (input ligand: FMN 200 uM), 42.2 nM under setting [4] and 109 nM (input ligand: none).
For the sequence “CGUCCAGCCUGAGCUGGACAAAAGCAUGUACAUGAGGAUCACCCAUGUUCAUGUACAAGCUUUUUGCUCGUCUUACG [salish99_208a_r3_093x] (puzzle: Sensor for hsa-mir-208a)”, the “apparent KD of MS2 coat protein” value by setting is: under setting [1], 507 nM; under setting [2], 16.7 nM; under setting [3], 617 nM.
With “CGUCCGGCCUGAGCUGGACGGAGGCAUGUACAUGAGGAUCACCCAUGUUCAUGUGCAGGCUUUUUGCUCGUCUUGUG [JL-shm-2.07 JL mod] (Eterna round: R96, puzzle: Sensor for hsa-mir-208a)”, the “apparent KD of MS2 coat protein” value runs as follows: (input ligand: FMN 200 uM) 62.8 nM; under setting [4], 10.6 nM; (input ligand: none) 57.8 nM.
As to “CGUCCGGCCUGAGCUGGACGGAGGCAUGUACAUGAGGAUCACCCAUGUUCAUGUGCAGGCUUUUUGCUCGUCUUGUG [JL-shm-2.07 JL mod] (puzzle: Sensor for hsa-mir-208a)”, the “apparent KD of MS2 coat protein” value reads like this: under setting [1], 53 nM; under setting [2], 10.9 nM; under setting [3], 54.2 nM.
The like results for “CGUCCGGCCUGUGCUGGACGGAAGCAUGUACAUGAGGAUCACCCAUGUUCAUGUGCAGGCUUUUUGCUCGUCUUGUG [salish99_mir208a_modof_jandersonlee_005] (puzzle: Sensor for hsa-mir-208a)” were, in that order, 102 nM, 13.4 nM and 117 nM.
The like results for “CGUCCGGCCUGUGCUGGCCGGUUGCAUGUACAUGAGGAUCACCCAUGUUCAUGUGCAGGCUUUUUGCUCGUCUUGUG [salish99_mir208a_013] (puzzle: Sensor for hsa-mir-208a)” were, in that order, 19.4 nM, 11.2 nM and 18.9 nM.
For “CGUCGUUUGAUAGGAUAUCGCUUUACAUGAGGAUCACCCAUGUUUACCACGCUGGUUUUUCUUUCCGAGAAGGAUUCUGAUGUU [salish99_SSNG02_r04_023] (Eterna round: R96, puzzle: Same State NG 2)”, the “apparent KD of MS2 coat protein” value was found to be 35.7 nM (input ligand: FMN 200 uM), 25.2 nM under setting [4] and 35.9 nM (input ligand: none).
In the case of “CGUCGUUUGAUAGGAUAUCGCUUUACAUGCGGAUCACCCAUGUUUACCACGCUGGUUUUUCUUUCCGAGAAGGAUUCUGAUGUU [salish99_SSNG02_r04_026] (Eterna round: R96, puzzle: Same State NG 2)”, the “apparent KD of MS2 coat protein” value is 42 nM (input ligand: FMN 200 uM), 10.1 nM under setting [4] and 134 nM (input ligand: none).
The like results for “CGUCGUUUGCUAGGAUAUCGCUAUACAUGAGGAUCACCCAUGUUUACCACGCUGGUUUUUCAUACCGAGAAGGAGUCUGAUGUU [salish99_SSNG02_r04_020] (Eterna round: R96, puzzle: Same State NG 2)” were, in that order, 28.8 nM, 24.8 nM and 33 nM.
Consider “CGUGGGUGGCUGGAGGAUAUUCGAGUGGUAACAUGAGGAUCACCCAUGUGUCGCGCGGUACACGAGGAGAAGGCUGGCGGCCGGC (puzzle: Same State 2)”, for which the “apparent KD of MS2 coat protein” value runs as follows: under setting [1], 34.6 nM; under setting [2], 109 nM; under setting [3], 256 nM.
The like results for “CUAUCUACAGGUGUCUUUGCUCGUCUUAUACAUGAGGAUCACCCAUGUUAUAGCCCGGUGCUUGCGCUGGGCUGAUU [JL ViennaUCT Tearor mod 6] (puzzle: Sensor for hsa-mir-208a)” were, in that order, 79.8 nM, 13.2 nM and 95.7 nM.
The like results for “CUAUCUACAGGUUUCAGUGCUCGUCUUAUACAUGAGGAUCACCCAUGUUAUAGCCCGGUGCUUGCGCUGGGCUGAUU [JL ViennaUCT Tearor mod 3] (puzzle: Sensor for hsa-mir-208a)” were, in that order, 31.4 nM, 14.8 nM and 39.3 nM.
In the case of “CUAUGACAUGAGGAUCACCCAUGUGAUAAUUUCAUAGGAUAUACGGCGCCGUUAAGGGCCGUAGAAGGGUGAUCGA [Veonti] (puzzle: Same State 1)”, the “apparent KD of MS2 coat protein” value by setting is: under setting [1], 35.4 nM; under setting [2], 30.7 nM; under setting [3], 22.9 nM.
The like results for “CUCAAACAUGAGGAUCACCCAUGUUUUUUCAUGGGAGGAUAUCUAAGUUCAUUAUAUUCAGGAGAAGGCCUAUGUC [× ×•×ª×• ×ž×“×™× ×” × ×—×ª-07] (puzzle: Same State 1)” were, in that order, 159 nM, 729 nM and 261 nM.
As for “CUGAGAAGUCAAGGAUAUCACGUCGAUUAGACGUGAGAAGGUGAUCAUUACAUGAGGAUCACCCAUGUGUUACAUGGAACUCAG [Brourd's SSNG1/1-A2 mod 7] (Eterna round: R96, puzzle: Same State NG 1)”, the “apparent KD of MS2 coat protein” value runs as follows: (input ligand: FMN 200 uM) 672 nM; under setting [4], 659 nM; (input ligand: none) 762 nM.
